# Test: soluble on expression in E. coli; label from the status in PepcDB or PDB records
row,Sequence,soluble on expression in E. coli
1,MGQRQAKQHMQAGVKLYHQRHYAQAINKWRQSLNRLNNAEDRFITLGYLAQALCDQGEYEGMLSYALSQMQLATDQNDSAMKCEAFLNLAKAYERLADFTKALQYGKASLEHPSMDPRTPGYAHLTIALAHLGMSQFQQCLESFESAMNVANETSDRLLELQICVGLGSLFTLLRDITKALIFLRNALAIVQSVTVDDVHAKYRCLILYHLSVALRMKGSLVDAKEACDEASQLAVEMGNRAIHARCMCSLADIYRELGESEAKETITKSWARYEDAYRVMRGANDKMGEVLVLSSMAKSASESRSHYTGQCECQAIQLNKKCIEIANQIGCKHVVLKCHLRLAELYSQLNDDDSEETARRAASRLTQEMQLFCNFCGQRYGLKDESLQALRCSHIFHEKCLHTYLLQRTDQTCPKCRCRAVLSDNISIRSSIASTIDVQSPSTSFAPPGGVATPLVSAAAELGDITPQATLTRRSQQDKILRGAEKDIDRVDRSLARLKSQQSAAANACSAVAVPSPEVPSTTASCASEPILTASTTSQSHTHSNANHKPPPPPRKPCCSQAALPPSSIVALPPAMPLAEDGPLVITHTPTVTDV,not soluble
2,MGHHHHHHSHMLACCAIYSPVRCAFPYTETERRFTCKRRIFRIILTLCGRENMKIRALLVAMSVATVLTGCQNMDSNGLLSSGAEAFQAYSLSDAQVKTLSDQACQEMDSKATIAPANSEYAKRLTTIANALGNNINGQPVNYKVYMAKDVNAFAMANGCIRVYSGLMDMMTDNEVEAVIGHEMGHVALGHVKKGMQVALGTNAVRVAAASAGGIVGSLSQSQLGNLGEKLVNSQFSQRQEAEADDYSYDLLRQRGISPAGLATSFEKLAKLEEGRQSSMFDDHPASAERAQHIRDRMSADGIK,not soluble
3,MSLSKASLQEMAVKYIAEQIGEHDSEQIHLSALPLDSRIPDRACSTTPDIISSSEPPFNRQITIQVKCDDPQSWAQYVHIKVLKMAPVVVTTDNIARGEVITSAHITVEMKPTHFVRVQYQDDPKALIGSRSKRNIREGMPILLNQICMVCKGDAINIYASTKGLQIKTTGVALEDGTLGEQILVENKKTGKVLNARVDGVESVQVNIEGHHHHHH,not soluble
4,MPVDLSKWSGPLSLQEVDEQPQHPLHVTYAGAAVDELGKVLTPTQVKNRPTSISWDGLDSGKLYTLVLTDPDAPSRKDPKYREWHHFLVVNMKGNDISSGTVLSDYVGSGPPKGTGLHRYVWLVYEQDRPLKCDEPILSNRSGDHRGKFKVASFRKKYELRAPVAGTCYQAEWDDYVPKLYEQLSGK,soluble
5,MSNSTMEATQMKVKLAVDEMIDDLDKTYLRDMQKSMFQCSARCCDNKKTTRDAVENCVESCNDGMKKAQGYLEKELGGLQDQLSRCAMTCYDKLVQQFGPDVNKYSESQKLSFNEKLDSCVSVCADDHIKLIPAIKKRFAKNT,not soluble
6,NDNRPVFKEGQVEVHIPENAPVGTSVIQLHATDADIGSNAEIRYIFGAQVAPATKRLFALNNTTGLITVQRSLDREETAIHKVTVLASDGSSTPARATVTINVTDVN,soluble
7,MANYWLYKSEPFKWSWEMQKAKGETGEEWTGVRNYQARNNMRAMKIGDKGFFYHSNEGLDVVGIVEVCALSHPDSTAEGDLKWDCVDIRAVCDMPQPVSLKDVKANPKLEKMSLVTSMRLSVQPVTEEEYLEVCRMGGLANPPKSPDLEHHHHHH,soluble
8,MNLMLCCTPLQVLIARKIIELHPNEQFFGVMFGGVWDKKRTLYASKLAEVCSDSMNIDTGKDLKGFDFLKLMRQLKNKITHKGFDKVFLANLNSLWLQTYLSHVSFKELYTFDDGSDNIFPHPNLLREPGTFKYKLIKAFIGDKYSVNKLFKKIKKHYTVYPNYKNIVSNIEPISLWDNQIDCEIDGEVSFFIGQPLLNTKEENISLIKKLKDQIPFDYYFPHPAEDYRVDGVNYVESELIFEDYVFKHLSNKKLFIRSSVLLHLIYVILMKSVLLERVFQDGNSVTIHFQTLDRFIRKFLEHHHHHH,not soluble
9,MKVMECQTYEELSQIAARITADTIKEKPDAVLGLATGGTPEGTYRQLIRLHQTENLSFQNITTVNLDEYAGLSSDDPNSYHFYMNDRFFQHIDSKPSRHFIPNGNADDLEAECRRYEQLVDSLGDTDIQLLGIGRNGHIGFNEPGTSFKSRTHVVTLNEQTRQANARYFPSIDSVPKKALTMGIQTILSSKRILLLISGKSKAEAVRKLLEGNISEDFPASALHLHSDVTVLIDREAASLRP,soluble
10,MNRWEKELDKYAELAVKVGVNIQPGQTLFVNAPLEAAPLVRKIAKTAYETGAKHVYVEWNDEALTYIKFHHAPEEAFSEYPMWRARAMEELAEQGAAFLSIYAPNPDLLKDVDPKRIATANKTAAQALANYRSAIMADRNCWSLISVPTPAWAQKVFGDLRDEEAIDKLWEAIFRITRIDHDDPIAAWRKHNDRLARIVDYLNNKQYKQLVYEAPGTNLTVELVDGHVWHGGAATSQSGVRFNPNIPTEEVFTMPHKDGVNGTVRNTKPLNYNGNVIDGFTLTFKDGQVVDFSAEQGYETLKHLLDTDDGARRLGEVALVPHQSPVSLSNLIFYNTLFDENAACHLALGKAYPTNIENGASLSKEELDRRGVNDSLVHVDFMIGSADLNIDGVTKDGKREPIFRSGNWAFELS,not soluble
11,AQHPPYCRNQPGKCQIPLQSLFDRATTVANYNSKLAGEMVNRFDEQYGQGINSESKVINCHTSSITTPNSKAEAINTEDKILFKLVISLLHSWDEPLHHAVTELANSKGTSPALLTKAQEIKEKAKVLVDGVEVIQKRIHPGEKNEPYPVWSEQSSLTSQDENVRRVAFYRLFHCLHRDSSKIYTYLRILKCRLTSCET,soluble
12,MGSDKIHHHHHHMKRVQNLLVAVGLSPNYHRRTYPSGKKSLVVRFYATLTPGLEDVAAKEVESFGCKVEEIRERRGRIFFSGEKSAIPLLNHFSRTLERLNVLLLRCEVEGLDDIYAAVKGLDFSFVKGKSFAIRSLRVGEHDFTSMDIARVAGQAVIDSFMESYGERLKVNLNQPDVIIRVELVDSELFVGVDTTGDDAMHKRWWRVYNHPAHLNAAIACGMLRIADWKVDESLIDPMCGSGTIPIEAALMVRNVPNLRDFAYKKLCEWELAFEPNEVRLKLYGMEKFRKHLVGAIRNAVNAGVADTIEFRQGDATEMTGEYDVIITNPPYGLRIHRKGAIERLYHSFARAAKRCMNQNSRLVIITAEHRVFANAAEEAGLQCTHERFVKYGGLLTKIMVFMI,not soluble
13,MSTIDFRPYGGFIFDMDGTLIDTMPAHLAAWQATADRFDFPFCQEWLHSLGGMPSFKIVAELNRHYGLSLDPQTVSKFKMETFAAMELQGDVIQCTGIVLEEYLGQKKIAVGTGSQRESAMRLLSHAGLIDRLDAVVTASDVENHKPCPDTFLLAADRLGIDAQNCLVFEDTELGKRAAHSAGMDCVMVEGNNLVFYPKR,not soluble
14,MPQTDKQVCIPPELPELLKQFTKDAIRTQPPDLIQWAAEYFGAMSRGEIPPVRERSEQIPLSNWAELTPELLKVLHSRVAGRLIIHADELAQMWKVLNLPTDLFNSVMNVGRFTEEIEWLKFLALACSSLGVTIAKTLKIVCEVLSSDHDGGPPRIPFSTFQFLYTYIAEVDGEISSSHVSRMLNYIEQEVIGPDGLIKVNDFTQNPRVRLE,not soluble
15,MNDIIVLTGKVKFTITLDPGVWIFDDRKVDMDAYFSEPAPQPTEAEQEDEEIKKLSAFWDREIQEGAVFPPTLKTERRFLKEKIITGSFGMPFAPFLRNAEPHEDASELVIETEHGETVIPLEKAYDLIFAFSQNGKPLRDDGPVHIYFGDGSNREAPITHVRRLVVR,not soluble
16,MKVDKETIEYVANLARLRLSEKEKEKLALDLESIISYVDKLNELDTSKIIPTDHVIPIKNVFRDDEVRDSYPKDKMLMNAPEKEDGCFKVPKVVE,soluble
17,MNRNKWQRVPAPNTRGAKMHGWVREMDEAYREVNGEYAVLVRTLNTKLGTVKHAAIRNATETDITWSEKQRIKNEIFGEEKQAIEFFPKQSELIDEANMYHLWILEDCELEFGIYE,not soluble

# From the DeepSol protein solubility set
